In the nanobody polyreactivity screen of Harvey et al. (2022):

Assay: yeast display, Sf9 membrane polyspecificity reagent, FACS + sequencing; frameworks hold sequencing errors
In short: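 After 36–48 hours of galactose induction, yeast (Saccharomyces cerevisiae BJ5465) displaying a synthetic nanobody library were stained at 4 °C for 1 hour with 10% biotinylated, detergent-solubilized Sf9 membrane reagent. Streptavidin microbeads enriched the stained cells before FACS sorting into low and high (top ~1%) gates on anti-HA and streptavidin fluorescence. Each clone's polyreactivity label reflects its gate of origin.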

QVLLVESGVGLVQAGGSLRLSCAASGRIFKLYAMGWYRQAPGKERELVAAITRRGGSTSYADSVKGRFTISRDNAKNTVYLQMNSLKPEDTAVYYCAASYTGRTVVQGYEYWGQGTQVTVSS
polyreactivity (PSR sort gate): high polyreactivity

QVQLVESGGGLVQAGGSLRLSCAASGFTFDTYAMGWYRQAPGKERELVAAISWGGGSTFYADSVKGRFTISRDNAKNTVYLQMNSLKPEDTAVYYCAAEIPGYYVFNYGYWYYEYDYWGQGTQVTVSS
polyreactivity (PSR sort gate): high polyreactivity

QVQLVESGGGLVQAGGSLSLRCAASGRTLDVYAMGWYRQAPGKERELVARITSGGSTNYADSVKGRFTISRDNAKNTVYLQMNSLKPEDTSVYYCNAVVYTRPYTRPRYRYDYWGQGTQVTVSS
polyreactivity (PSR sort gate): high polyreactivity

QVQLVESGGGLVQAGGSLRLSCAASGGTFYRYAMGWYRQAPGKERELVAAISSNGGSTYYADSVKGRFTISRDNAKNTVYLQMNSLKPEDTAVYYCAAARDSIVYGQYDYWGQGTQVTVSS
polyreactivity (PSR sort gate): low polyreactivity

QVQLVESGGGLVQAGGSLRLICAASGSTFGRNAMGWYRQAPGKERELVAAITASGGTTYYADSVKGRFTISRDNAKNTVYLQMNSLKPEDTAVYYFARAGHFSFKYDYWGQGTQVTVSS
polyreactivity (PSR sort gate): low polyreactivity

QVQLVESVGGLVQAGGSLRLSCAASGYIFGHYTMRWYRQAPGKERELVAGISSGGITYYADSVKGRFTISRDNAKNTVYLQMNSLKPEDTAVYYCAVGTRVKYDYWGQGTQVTVSS
polyreactivity (PSR sort gate): high polyreactivity

QVQHVESGGGLVQEGGSLRLSCAASARTFPFYAMGWYRQATGKERELVAAITRSDDSPYYADSVKGRFTFSRDNAKNTVYVQMHSLKPEDIAVYYCAADVEGLTVESHVYRVGFDYCGQGTQVTVSS
polyreactivity (PSR sort gate): low polyreactivity

QVQLVESGVGLVQAGGSLRLSCAASGRIFYTYAMGWYRQAPGKERELVAAISSRTGSTYYADSVKGRFTISRDNAKNTVYLQMNSLKPEDTAVYYCAAYLWKSKRKLDYWGQGTQVTVSS
polyreactivity (PSR sort gate): high polyreactivity

QVQLVESGGGLVQAGGSLRLSCAASGSTFRYYAMGWYRQAPGKERELVAAISSAGTTYYADSVKGRFTISRDNAKNTVYLQMNSLNPEETAVYYCAAKYSYYTYAGDGGLFSWSYGYWGQGTQVTVSS
polyreactivity (PSR sort gate): low polyreactivity

QVQLVESGGGFVQAGGSLRLSCAASGFTFRKYARGWYRQAPGNERELVAVINIVGSTYYADSVKGRFTISRDNAKNTVYLQMNSLKPEDTAVYYCAADWSYRLKYYWYGGFNYWGQGTQVTVSS
polyreactivity (PSR sort gate): high polyreactivity

QVHLVDSGGGLVQAGGSLRLTCAASGSSFWAYVMGWYRQAPGKERELVAAISKSGVRTHYADSVKGRFTISRDNAKTTFYLQMNSLKPEDTAVYYFAAVGFGNLDDYWGQGTQVTVSS
polyreactivity (PSR sort gate): high polyreactivity

QVQLVESGGGLVQAGGSLRLSCAASGRTFYYYAMGWSRQAPGKERELVAAIRWRATSTFYADSVKGRFTISRDNAKNTVYLQMNSLKPEDSAVYYCATTGGYRLQAQKYYYWGQGTQVTLSS
polyreactivity (PSR sort gate): high polyreactivity

QVQLVESAGGLVQAGGSLRLSCAASGITFNDNAMGGYRQAPGKERELVAAINSGNGTDYEDSVKGRFTISRDNAKNTVYLQMNSLKPEDTAVYYCATEGYVQGDLGYLYTRYAFYYWGQGTQVTVSS
polyreactivity (PSR sort gate): low polyreactivity

QVQLVESGGGLVQAGGSLRLSCAASGITFKGNAMGWYRQAPGKERELVAAIRWRAGRTYYADSVKGRFTISRDNAKNTVYLQMNSLKPEDTAVYYCAAVGRYAYRRGSFLAYKSNYDYWGQGTQVTVSS
polyreactivity (PSR sort gate): high polyreactivity

QVQLVESGGGLVQAGGSLRLSCAASGFIFFVNAMGWYRQAPGKEREFVATITGSGGSTYYADSVKGRFTISRDNAKNTVYLQMYSLKPEDTAVYYCNAETYIDLRGKFPVEYDYWGQGTQVTVSS
polyreactivity (PSR sort gate): low polyreactivity

QVQLVESGGGLVQAGGSLRLSCAASGITFSRNAMGWYRQAPGKERELVAAINWTGGNTYYADSVKGRFTISRDNAKNTVYLQMNSLKPEDTAVYYCAADRRWFVWGLGYWGQGTQVTVSS
polyreactivity (PSR sort gate): low polyreactivity

QVQLVESGGGLVQAGGSLRLSCAASGSIFDAYAMGWYRQAPGKERELVAAITTGGGSTYYADSVMGRFTISRDNAKNTVYLQMNSLKPEDTAVYYCARDYGKYKGYYWGQGTQVTVSS
polyreactivity (PSR sort gate): low polyreactivity

QVQLVESGGGLVQAGGSLRLSCAASGSTFLANTMGWYRQAPGKEREFVAAITRRGGSTYYADSVKGRFTISRDNAKNTVYLQMNSLKPEDTAVYYCNAEWDFQYPYDYWGQGTQVTVSS
polyreactivity (PSR sort gate): low polyreactivity

QVQLEESGGGLVQAGGRLRLSCAASGSILTAYAMGWYRQAPGKERELVAASNFSGDNTYYADSVKGRFTISRDNAKNTVYLQMNSLKPQDTALYYCNADGRYAYVWYDYWGQGTQVTVSS
polyreactivity (PSR sort gate): low polyreactivity

QVQLVESGGGLVQAGGSLRLRCAASGSIFTSYALGWYRQAPGKERELVAAINGSGGSTFYADSVKSRFTISRDNAKYTFYLQMNSLKPEDTAVYYCNTGGPRGTTYDFWGLGTQVTVSS
polyreactivity (PSR sort gate): low polyreactivity

QVQLVESGAGLVQAGGSLRISGAASGRIFGKYAMGWYRQPPGKEREFVARISFSGGTTYYADSVKGRFTISRDNAKNTVYLQMNSLKPEDTAVYYCAARRQSGYGRQLDYWGQGTQVTVSS
polyreactivity (PSR sort gate): high polyreactivity

QVQLVESGGGLVQAGGSLRLSCAASGIIFYGNTLGWYRQAPGKERELVAGIDFSDDSTNYADSVKGRFTISRDNAKNSVYLLRNSLKPEDTAVYYCAADTRSPSAQEVDYWGQGTQVTVSS
polyreactivity (PSR sort gate): low polyreactivity

QVQLGESVGGLVQAGGSLRLSCAASGSILFPYPMGWYRQAPGKERELVAAISWSGDSTRYADSVKGRFTISRDNAKNTVYLQMNSLKPEVTAVYYCATSSDATGTFAPMDSWGQGTQVTVSS
polyreactivity (PSR sort gate): low polyreactivity

QVQLVESGGGLVQAGGSLRLSCAASGRTFYFYPMGWYRQAPGKERELVAAIRSSGGSTNYADSVKGRFTISRDNAKNTVYLQMNSLKPEDTAVYYFAAKRRAKGNYAFYYWGQGTQVTVSS
polyreactivity (PSR sort gate): high polyreactivity

QVQLVESGGGLVQAGGSLRLSCAASGLIFYYYALAWYRQAPGKERELVAAITWTAGSTSYADSVKGRFTISRDNAKNTVYLQMNRLKPEDTAVYYCAADYRHDTFSNEYDYWGQGTQVTVSS
polyreactivity (PSR sort gate): low polyreactivity

QVQLVESGGGLVQARGSLRLSCAASGFTFRSYTMGWYRQAHGKERELVAAITSRGTSTYYADSVKGRFTISLDNAKNTVYLQMNSLKPEDTAVYYCAAPIYNGYASWQVYYWGQGTQVTVSS
polyreactivity (PSR sort gate): high polyreactivity

QVQLVESGGGLVQAGVSLRLSCAASGSIFRYYAMGWYRQAPGKERELVAAITVGGSTYYADSVKGRFTISRDNAKNTVYLQMNSLKPEDTAVYYCAADGDKRTKGYDYWGQGTQVTVSS
polyreactivity (PSR sort gate): high polyreactivity

QVQLVESGGGLVQAGGSLRLSCAASGRTFVYYTLGWYRQPPGKERELVARISAGGGITYYADSVKGRFTISRDNAKNTVYLQMNSLNREDTAVYYCAADYWFTYRRPAYEYAYWGQGTQVTVSS
polyreactivity (PSR sort gate): high polyreactivity

QVKLVESGGGLVQAGGSLRLSCAASGGNFGNYAMGWYRQAPWKERELVATIRYRGGSTYYADSVKGRFTISRDNAKITVYLQMNSLIPEDTAVFYCAARRSHPQDPRFRYGYWGQATQVTVSS
polyreactivity (PSR sort gate): high polyreactivity

QVQLVESGGGLVQAGGSLRLSCAASGRTSKRYAMGWYRQAPGKERELVASIRGGDGSTYYADSVKGRFTISRDNAKNTVYLQMNSLKPEDTAVYYCARASSYGYYYWGQGTQVTVSS
polyreactivity (PSR sort gate): high polyreactivity

QVQLVESGGGLVQAGGSLRLSCAASGSTFVVNVMGWYRQAPGNEMELVAAITYRSGSTYYADSVKGRFTISRDNEKNTVYLQMNSLNPEDSAVYYCAAGYYSRYYEAFEYYYWGQGTQVTVSS
polyreactivity (PSR sort gate): high polyreactivity
